Assay results: patent US9187525B2, “Methods of treating ophthalmic diseases using NPR-B agonists” (Shire Orphan Therapies GmbH, dated 2015)
Numbered stars: 1 amine (or outer) side, 2 acyl side, 3 side chain; on linkers, the order of the positions; unused ones are H or OH. Square brackets hold non-standard residues; d marks the D form. Primed or numbered codes have the meaning given here. Ends that are not written are not given here. * marks the point of attachment. Eal = rac-imidazolidine-2-carboxylic acid, O=C(C1N([*:1])CCN1[*:3])[*:2]; 6182 = 5-Butyl-2H-pyrazole-3-carboxylic acid, CCCCc1cc(C(=O)*)[nH]n1; Pro(trans-4-NH2) = O=C([C@@H]1C[C@@H](N[*:3])CN1[*:1])[*:2]; Pro(trans-4-guanidino) = N=C(N)N[C@H]1CN[C@H](C(=O)O)C1; Sni = (S)-nipecotic acid, O=C([C@H]1CCCN([*:1])C1)[*:2]; Azetidine3carboxylic = O=C(C1CN([*:1])C1)[*:2]; Hyp = O=C(O)[C@@H]1C[C@@H](O)CN1; NMeL = CN[C@@H](CC(C)C)C(=O)O; dDap(Me2)′ = not defined here; AR‑201‑48 = not defined here; AR‑201‑49 = not defined here; AR‑201‑54 = not defined here; Tle = CC(C)(C)[C@H](N)C(=O)O; dNle = CCCC[C@@H](N)C(=O)O; dOrn = NCCC[C@@H](N)C(=O)O; SH‑158 = not defined here; Octanoyl = CCCCCCCC(=O)*; Ac5c = NC1(C(=O)O)CCCC1; dAze = O=C(O)[C@H]1CCN1; Hexanoyl = CCCCCC(=O)*; Oct = not defined here; Occ = octanoic acid; βAla = NCCC(=O)O; Sar = CNCC(=O)O

T1: natriuretic peptide receptor-B (human)
T1 chain: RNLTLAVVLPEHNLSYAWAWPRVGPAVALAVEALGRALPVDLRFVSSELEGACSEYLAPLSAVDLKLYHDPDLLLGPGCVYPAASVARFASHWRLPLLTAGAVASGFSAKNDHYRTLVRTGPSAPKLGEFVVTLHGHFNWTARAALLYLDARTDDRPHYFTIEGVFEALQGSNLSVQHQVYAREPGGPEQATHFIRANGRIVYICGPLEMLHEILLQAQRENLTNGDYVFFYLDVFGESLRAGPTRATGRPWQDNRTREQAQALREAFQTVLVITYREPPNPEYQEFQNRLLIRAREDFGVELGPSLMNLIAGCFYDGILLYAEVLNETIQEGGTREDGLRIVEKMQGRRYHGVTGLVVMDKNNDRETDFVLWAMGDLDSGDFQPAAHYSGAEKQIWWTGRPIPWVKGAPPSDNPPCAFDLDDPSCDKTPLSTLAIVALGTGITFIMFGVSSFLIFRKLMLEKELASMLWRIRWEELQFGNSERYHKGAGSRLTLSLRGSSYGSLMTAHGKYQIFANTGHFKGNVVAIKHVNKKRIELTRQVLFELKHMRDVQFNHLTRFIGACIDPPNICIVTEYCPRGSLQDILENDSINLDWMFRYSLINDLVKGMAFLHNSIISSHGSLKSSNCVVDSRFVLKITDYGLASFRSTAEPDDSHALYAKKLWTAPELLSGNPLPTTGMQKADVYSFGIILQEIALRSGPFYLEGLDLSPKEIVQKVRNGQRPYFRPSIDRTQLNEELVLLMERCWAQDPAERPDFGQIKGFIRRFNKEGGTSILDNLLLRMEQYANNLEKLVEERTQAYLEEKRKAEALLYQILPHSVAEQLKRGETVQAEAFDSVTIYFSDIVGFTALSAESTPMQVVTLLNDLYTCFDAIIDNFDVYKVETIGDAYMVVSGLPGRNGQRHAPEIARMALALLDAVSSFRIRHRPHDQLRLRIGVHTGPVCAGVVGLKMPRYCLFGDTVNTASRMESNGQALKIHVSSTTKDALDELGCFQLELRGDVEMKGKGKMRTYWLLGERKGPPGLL

B1: JAL-1292 (peptide)
peptide: [AR‑201‑49]F[dR]L[Hyp][NMeL]DRI-NH2
modifications: reading uncertain; also: printed as (AR-201-49)-Phe-arg-Leu-Hyp-Nml-Asp-Arg-Ile-NH2
B2: JAL-1283 (peptide)
peptide: Octanoyl-[dA]F[dL]L[Hyp][SH‑158]DRI-NH2
modifications: reading uncertain; also: printed as Occ-ala-Phe-leu-Leu-Hyp-(SH-158)-Asp-Arg-Ile-NH2
B3: JAL-1316 (peptide)
peptide: [AR‑201‑54]F[dR]L[Hyp][NMeL]DRI-NH2
modifications: reading uncertain; also: printed as (AR-201-54)-Phe-arg-Leu-Hyp-Nml-Asp-Arg-Ile-NH2
B4: JAL-1324 (peptide)
peptide: XFRLXXDRI
HELM: PEPTIDE1{[CCCCCCCCS(=O)(=O)CCC(=O)[*:2]].F.[dR].L.[Hyp].[meL].D.R.I.[am]}$$$$V2.0; N-terminus assumed
SMILES: CCCCCCCCS(=O)(=O)CCC(=O)N[C@@H](Cc1ccccc1)C(=O)N[C@H](CCCNC(=N)N)C(=O)N[C@@H](CC(C)C)C(=O)N1C[C@H](O)C[C@H]1C(=O)N(C)[C@@H](CC(C)C)C(=O)N[C@@H](CC(=O)O)C(=O)N[C@@H](CCCNC(=N)N)C(=O)N[C@H](C(N)=O)[C@@H](C)CC
B5: JAL-1284 (peptide)
peptide: Octanoyl-[dA]F[dR]L[Hyp][SH‑158]DRI-NH2
modifications: reading uncertain; also: printed as Occ-ala-Phe-arg-Leu-Hyp-(SH-158)-Asp-Arg-Ile-NH2
B6: JAL-1294 (peptide)
peptide: [AR‑201‑49]F[dL]L[Hyp][NMeL]DRI-NH2
modifications: reading uncertain; also: printed as (AR-201-49)-Phe-leu-Leu-Hyp-Nml-Asp-Arg-Ile-NH2

Biological target: T1, natriuretic peptide receptor-B
Assay: cell-based or functional assay

Row | EC50 group, cGMP in GTM-3 cells | Binder
1 | ≤ 5 µM | Octanoyl-[Sar]F[dR]L[Hyp][NMeL]DRI-NH2 [JAL-1273]
2 | ≤ 1 µM | XAFXLXXDRI (Occ-ala-Phe-orn(Me2)-Leu-Hyp-Nml-Asp-Arg-Ile-NH2) [JAL-1288]
3 | ≤ 1 µM | [Oct][Sni]F[dL]L[Pro(trans-4-NH2)][NMeL]DRI-NH2 (reading uncertain; also: printed as Oct-Sni-Phe-leu-Leu-Tap-Nml-Asp-Arg-Ile-NH2) [JAL-1326]
4 | ≤ 15 µM | Hexanoyl-[dA][dA]FGLKLDRI-NH2 [JAL-0635]
5 | ≤ 5 µM | Octanoyl-[Azetidine3carboxylic]F[dR]L[Hyp][NMeL]DRI-NH2 [JAL-1275]
6 | ≤ 5 µM | 6182-[dA]F[dR]L[Hyp][NMeL]DRI-NH2 [JAL-1298]
7 | ≤ 1 µM | [Occ][Sni]F[dDap(Me2)′]L[Pro(trans-4-NH2)][NMeL]DRI-NH2 [JAL-1325]
8 | ≤ 1 µM | [Occ][Sni]F[dL]L[Pro(trans-4-NH2)](βAla)[NMeL]DRI-NH2 [JAL-1323]
9 | ≤ 5 µM | B1
10 | ≤ 1 µM | B2
11 | ≤ 5 µM | Octanoyl-[dAze]F[dR]L[Hyp][NMeL]DRI-NH2 [JAL-1274]
12 | ≤ 5 µM | Octanoyl-[dA]F[dL]L[Eal][NMeL]DRI-NH2 [JAL-1281_01]
13 | ≤ 5 µM | B3
14 | ≤ 5 µM | XAFRLXXDRI (Occ-ala-Phe-arg-Leu-Hyp-Dap(Me2)-Asp-Arg-Ile-NH2) [JAL-1314]
15 | ≤ 15 µM | Hexanoyl-P[dA]FGLKLDRI-NH2 [JAL-0634]
16 | ≤ 5 µM | Octanoyl-[dA]F[dR]L[Hyp][NMeL]DR[Ac5c]-NH2 [JAL-1306]
17 | ≤ 1 µM | Octanoyl-[Sni]F[dOrn]L[Pro(trans-4-NH2)][NMeL]DRI-NH2 [JAL-1318]
18 | ≤ 1 µM | Octanoyl-[dA]F[dR]L[Hyp][NMeL]DR[Tle]-NH2 [JAL-1305]
19 | ≤ 5 µM | Octanoyl-[dA]FGL[Pro(trans-4-guanidino)]LDRI-NH2 [JAL-1270]
20 | ≤ 5 µM | B4

Row | EC50 group, cGMP in GTM-3 cells | Binder
21 | ≤ 15 µM | Octanoyl-[dA]FGL[Eal][NMeL]DRI-NH2 [JAL-1282]
22 | ≤ 5 µM | [Occ][Sni]F[dL]L[Pro(trans-4-NH2)](Ac)[NMeL]DRI-NH2 [JAL-1321]
23 | ≤ 1 µM | Octanoyl-[Sni]F[dR]L[Hyp][NMeL]DRI-NH2 [JAL-1297]
24 | ≤ 1 µM | B5
25 | ≤ 1 µM | XXFXLXXDRI (Occ-Sni-Phe-orn(Me2)-Leu-Hyp-Nml-Asp-Arg-Ile-NH2) [JAL-1289]
26 | ≤ 15 µM | Hexanoyl-S[dA]FGLKLDRI-NH2 [JAL-0633]
27 | ≤ 5 µM | Octanoyl-[Sni]F[dNle]L[Pro(trans-4-NH2)][NMeL]DRI-NH2 [JAL-1319]
28 | ≤ 1 µM | Octanoyl-[Sni]F[dR]L[Pro(trans-4-NH2)][NMeL]DRI-NH2 [JAL-1317]
29 | ≤ 15 µM | [AR‑201‑48][dR]L[Hyp][NMeL]DRI-NH2 (reading uncertain; also: printed as (AR-201-48)-arg-Leu-Hyp-Nml-Asp-Arg-Ile-) [JAL-1291]
30 | ≤ 5 µM | Octanoyl-[dA]F[dL]L[Pro(trans-4-guanidino)]LDRI-NH2 [JAL-1272]
31 | ≤ 1 µM | Octanoyl-[dA]F[dL]L[Pro(trans-4-NH2)][NMeL]DRI-NH2 [JAL-1296]
32 | ≤ 1 µM | [Occ][Sni]FGL[Pro(trans-4-NH2)][NMeL]DRI-NH2 [JAL-1320]
33 | ≤ 5 µM | Octanoyl-[dA]F[dR]L[Pro(trans-4-guanidino)]LDRI-NH2 [JAL-1271]
34 | ≤ 1 µM | B6
35 | ≤ 1 µM | [Occ][Sni]F[dL]L[Pro(trans-4-NH2)](Gly)[NMeL]DRI-NH2 [JAL-1322]
36 | ≤ 15 µM | [AR‑201‑48][dL]L[Hyp][NMeL]DRI-NH2 (reading uncertain; also: printed as (AR-201-48)-leu-Leu-Hyp-Nml-Asp-Arg-Ile-) [JAL-1293]
37 | ≤ 1 µM | XXFXLXXDRI (Occ-Sni-Phe-dap(Me2)-Leu-Hyp-Nml-Asp-Arg-Ile-NH2) [JAL-1287]
38 | ≤ 1 µM | Octanoyl-[Sni]F[dL]L[Hyp][NMeL]DRI-NH2 [JAL-1302]
39 | ≤ 15 µM | XAFRXXXDRI (Occ-ala-Phe-arg-Dap(Me2)-Hyp-Nml-Asp-Arg-Ile-NH2) [JAL-1315]
40 | ≤ 1 µM | Octanoyl-[Sni]F[dL]L[Pro(trans-4-NH2)][NMeL]DRI-NH2 [JAL-1295]
